Positions count from the first letter of the chain named.
B1: anti-CCR8 monoclonal antibody AB5 (antibody, V domains shown)
VH: QVQLKESGPGLVQPSQTLSLTCTVSGFSLTSYHVSWVRQPPGKGLEWMGVIWTGGSTTYNSLLKSRLSISRDISKSQVFLKMNSLQTEDTATYYCARGGTVVKGGFAYWGQGTLVTVSS
VL: DIQMTQSPASLSASLEEIVTITCQASQDIGNRLSWYQQKPGKSPQLLIYGATSLADGVPSRFSGSRSGTQYSLKISRLQVEDIGIYYCLQAYSTPLTFGSGTKLEIK
notes: Hybridoma monoclonal; also called antibody 5; clone 5
B2: anti-CCR8 monoclonal antibody AB6 (antibody, V domains shown)
VH: B1 VH
VL: B1 VL
notes: also called antibody 6; clone 6
B3: anti-CCR8 monoclonal antibody AB7 (antibody, V domains shown)
VH: AVQLVESGGGLVQPKESLKISCAASGFTFSYAAMYWVRQTPGKGLEWVARIRTKPNNYATYYADSVKGRFTISRDDSKSMVYLQMDNLKSEDTAMYYCNIMGITRGYYFDYWGQGVMVTVSS
VL: DIQMTQSPSFLSASVGDRVTINCKASQNINRYLNWYQQQLGEAPKLLIYNANNLQTGIPSRFSGSRSGTDFTLTISSLQPEDVATYFCLQHNSWPWTFGGGTKLELK
notes: Hybridoma monoclonal; also called antibody 7; clone 7
B4: anti-CCR8 monoclonal antibody AB8 (antibody, V domains shown)
VH: B3 VH with T28I, Y31N, T40A, E46Q, N56K, A63I, S90T, I100T, I103L, G106A
VL: B3 VL with Q39K, N53S, R66G, S76R
notes: Hybridoma monoclonal; also called antibody 8; clone 8
B5: anti-CCR8 monoclonal antibody AB10 (antibody, V domains shown)
VH: EVQLVETGGGLVQPKGSLKLSCAVSGFTFKTNAMNWVRQAPGKGLEWVARIRSKSNKYATYYADSVKDRFTISRDDSQSMLYLQMNNLKTEDTAMYYCVRGSEMGYYYAMDYWGQGTSVTVSS
VL: DIVMTQAAPSVPVTPGESVSISCRSSKSLLHSNGNTYLYWFLQRPGQSPQLLIYRMSNLASGVPDRFSGSGSGTAFTLRISRVEAEDVGVYYCMQHLEYPFTFGGGTKLEIK
notes: Hybridoma monoclonal; also called antibody 10; clone 10

Each binder was assayed against T1, human chemokine (C-C motif) receptor 8 (CCR8) (human, UniProt P51685 1-355) (assay: flow cytometry blocking, human PBMC, CD3+ gate; competitor PE-AB5).
T1 construct: also called hCCR8
T1 sequence (P51685 whole entry): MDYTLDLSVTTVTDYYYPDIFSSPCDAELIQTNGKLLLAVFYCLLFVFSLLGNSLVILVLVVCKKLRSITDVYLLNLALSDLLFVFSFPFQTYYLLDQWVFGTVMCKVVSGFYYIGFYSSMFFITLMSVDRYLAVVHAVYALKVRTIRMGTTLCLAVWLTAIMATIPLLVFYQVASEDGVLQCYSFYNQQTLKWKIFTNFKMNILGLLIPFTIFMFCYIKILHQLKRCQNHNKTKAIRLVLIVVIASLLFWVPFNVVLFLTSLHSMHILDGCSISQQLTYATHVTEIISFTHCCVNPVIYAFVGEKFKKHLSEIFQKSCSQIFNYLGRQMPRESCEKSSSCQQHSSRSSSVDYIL
Protocol: (§1) For blocking studies, 100 μL of the cell suspension were incubated with 10 μg purified isotype control, AB1, AB2, AB3, AB4, AB5, AB8, AB9, AB10, AB11, AB12, AB13, AB14, AB15, and Commercial ABI antibodies, or isotype control, as blocking agents.
(§2) After incubation with the blocking agent, the cells were incubated with 0.25 μg of the indicated PE-conjugated antibody plus anti-human CD4 APC or anti-human CD3 for another 15 minutes in the dark and then washed 2 times with Cell Staining Buffer, and acquired in a FACSCanto II flow cytometer (BD Biosciences); the data was analyzed using FCS Express (De Novo Software); MFI correspond to the CCR8+ CD4+ lymphocytes or CCR8+ CD3+ lymphocytes.
(§3) Percentage original MFI was calculated by dividing the MFI of samples blocked with AB1, AB2, AB3, AB4, AB5, AB6, AB7, AB8, AB9, AB10, AB11, AB12, AB13, AB14, AB15, and Commercial ABI antibodies, by the MFI of samples blocked with the corresponding isotype control. This value was subtracted from 100 to get a blocking percentage. The formula is shown below: […]

Binder	% Blocking [%]
B1	84.9
B2	7.24
B3	-4.7
B4	-7.96
B5	-5.55

What follows are binders tested against T1, human chemokine (C-C motif) receptor 8 … (assay: flow cytometry blocking, human PBMC, CD3+ gate; competitor PE-AB6).
Protocol: as §1, §2, §3

Binder	% Blocking [%]
B1	96.1
B2	12.4
B3	-0.24
B4	1.33
B5	6.04

These binders were tested against T1, human chemokine (C-C motif) receptor 8 … (assay: flow cytometry blocking, human PBMC, CD3+ gate; competitor PE-AB7).
Protocol: as §1, §2, §3

Binder	% Blocking [%]
B1	-7.14
B2	83
B3	83.8
B4	6.48
B5	50.1

Each binder was assayed against T1, human chemokine (C-C motif) receptor 8 … (assay: flow cytometry blocking, human PBMC, CD3+ gate; competitor PE-AB8).
Protocol: as §1, §2, §3

Binder	% Blocking [%]
B1	0.12
B2	85.2
B3	92.9
B4	18
B5	48.6

The binders below were run against T1, human chemokine (C-C motif) receptor 8 … (assay: flow cytometry blocking, human PBMC, CD3+ gate; competitor PE-433H).

Binder	% Blocking [%]
B1	-0.99
B2	9.05
B3	87.5
B4	88.1
B5	19.9

These binders were tested against T1, human chemokine (C-C motif) receptor 8 … (assay: flow cytometry blocking, human PBMC, CD3+ gate; competitor PE-AB10).
Protocol: as §1, §2, §3

Binder	% Blocking [%]
B1	-23.1
B2	6.97
B3	91.2
B4	89.2
B5	97.5

Each binder was assayed against T1, human chemokine (C-C motif) receptor 8 … (assay: flow cytometry blocking, human PBMC, CD3+ gate; competitor PE-AB11).
Protocol: as §1, §2, §3

Binder	% Blocking [%]
B1	-1.71
B2	-9.26
B3	98
B4	90.2
B5	96

These binders were tested against T1, human chemokine (C-C motif) receptor 8 … (assay: flow cytometry blocking, human PBMC, CD3+ gate; competitor PE-AB12).
Protocol: as §1, §2, §3

Binder	% Blocking [%]
B1	-0.13
B2	5.71
B3	99.3
B4	99.3
B5	93.9

What follows are binders tested against T1, human chemokine (C-C motif) receptor 8 … (assay: flow cytometry blocking, human PBMC, CD3+ gate; competitor PE-AB13).
Protocol: as §1, §2, §3

Binder	% Blocking [%]
B1	-5.41
B2	2.41
B3	85.6
B4	96.1
B5	88.1

The binders below were run against T1, human chemokine (C-C motif) receptor 8 … (assay: flow cytometry blocking, human PBMC, CD3+ gate; competitor PE-AB14).
Protocol: as §1, §2, §3

Binder	% Blocking [%]
B1	9.26
B2	10.2
B3	96.3
B4	98.5
B5	96.2

These binders were tested against T1, human chemokine (C-C motif) receptor 8 … (assay: flow cytometry blocking, human PBMC, CD3+ gate; competitor PE-AB15).
Protocol: as §1, §2, §3

Binder	% Blocking [%]
B1	-2.58
B2	10
B3	87.1
B4	98.9
B5	95.6

Each binder was assayed against T1, human chemokine (C-C motif) receptor 8 … (assay: flow cytometry blocking, human PBMC, CD3+ gate; competitor PE-L263G8).

Binder	% Blocking [%]
B1	-22.1
B2	-12.1
B3	79.7
B4	92.5
B5	90.3

What follows are binders tested against T1, human chemokine (C-C motif) receptor 8 … (assay: flow cytometry blocking, human PBMC, CD3+ gate; % cells stained by competitor PE-AB5 after block).
Protocol: as §1, §2

Binder	% Positive cells [%]
B1	1.25
B2	7.69
B3	8.68
B4	8.95
B5	8.75

The binders below were run against T1, human chemokine (C-C motif) receptor 8 … (assay: flow cytometry blocking, human PBMC, CD3+ gate; % cells stained by competitor PE-AB6 after block).
Protocol: as §1, §2

Binder	% Positive cells [%]
B1	0.32
B2	7.25
B3	8.3
B4	8.17
B5	7.78

The binders below were run against T1, human chemokine (C-C motif) receptor 8 … (assay: flow cytometry blocking, human PBMC, CD3+ gate; % cells stained by competitor PE-AB7 after block).
Protocol: as §1, §2

Binder	% Positive cells [%]
B1	9.75
B2	1.55
B3	1.47
B4	8.51
B5	4.54

What follows are binders tested against T1, human chemokine (C-C motif) receptor 8 … (assay: flow cytometry blocking, human PBMC, CD3+ gate; % cells stained by competitor PE-AB8 after block).
Protocol: as §1, §2

Binder	% Positive cells [%]
B1	8.45
B2	1.25
B3	0.6
B4	6.94
B5	4.35

Each binder was assayed against T1, human chemokine (C-C motif) receptor 8 … (assay: flow cytometry blocking, human PBMC, CD3+ gate; % cells stained by competitor PE-433H after block).
Protocol: as §1, §2

Binder	% Positive cells [%]
B1	7.14
B2	6.43
B3	0.88
B4	0.84
B5	5.66

These binders were tested against T1, human chemokine (C-C motif) receptor 8 … (assay: flow cytometry blocking, human PBMC, CD3+ gate; % cells stained by competitor PE-AB10 after block).
Protocol: as §1, §2

Binder	% Positive cells [%]
B1	7.42
B2	5.61
B3	0.53
B4	0.65
B5	0.15

These binders were tested against T1, human chemokine (C-C motif) receptor 8 … (assay: flow cytometry blocking, human PBMC, CD3+ gate; % cells stained by competitor PE-AB11 after block).
Protocol: as §1, §2

Binder	% Positive cells [%]
B1	7.14
B2	7.67
B3	0.14
B4	0.69
B5	0.28

These binders were tested against T1, human chemokine (C-C motif) receptor 8 … (assay: flow cytometry blocking, human PBMC, CD3+ gate; % cells stained by competitor PE-AB12 after block).
Protocol: as §1, §2

Binder	% Positive cells [%]
B1	7.54
B2	7.1
B3	0.05
B4	0.05
B5	0.46

These binders were tested against T1, human chemokine (C-C motif) receptor 8 … (assay: flow cytometry blocking, human PBMC, CD3+ gate; % cells stained by competitor PE-AB13 after block).
Protocol: as §1, §2

Binder	% Positive cells [%]
B1	7.01
B2	6.49
B3	0.96
B4	0.26
B5	0.79

What follows are binders tested against T1, human chemokine (C-C motif) receptor 8 … (assay: flow cytometry blocking, human PBMC, CD3+ gate; % cells stained by competitor PE-AB14 after block).
Protocol: as §1, §2

Binder	% Positive cells [%]
B1	6.47
B2	6.4
B3	0.26
B4	0.11
B5	0.27

What follows are binders tested against T1, human chemokine (C-C motif) receptor 8 … (assay: flow cytometry blocking, human PBMC, CD3+ gate; % cells stained by competitor PE-AB15 after block).
Protocol: as §1, §2

Binder	% Positive cells [%]
B1	6.75
B2	5.92
B3	0.85
B4	0.07
B5	0.29

Each binder was assayed against T1, human chemokine (C-C motif) receptor 8 … (assay: flow cytometry blocking, human PBMC, CD3+ gate; % cells stained by competitor PE-L263G8 after block).
Protocol: as §1, §2

Binder	% Positive cells [%]
B1	7.17
B2	6.58
B3	1.19
B4	0.44
B5	0.57

— patent publication US20240360228A1 (BIOLEGEND, published 2024)
